Earlier results on one substance are cited in paper PMC9794804.

Targets include TREM-1 (UniProt Q9NP99); TLR4 (UniProt O00206); IL-6R (UniProt P08887).

eCIRP, sequence (Q14011 whole entry): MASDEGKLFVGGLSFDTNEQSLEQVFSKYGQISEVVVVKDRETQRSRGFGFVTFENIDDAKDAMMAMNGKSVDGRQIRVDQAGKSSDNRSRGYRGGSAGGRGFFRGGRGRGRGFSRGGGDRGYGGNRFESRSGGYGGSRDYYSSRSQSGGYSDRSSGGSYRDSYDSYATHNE
IL-6R, sequence (P08887 20-365): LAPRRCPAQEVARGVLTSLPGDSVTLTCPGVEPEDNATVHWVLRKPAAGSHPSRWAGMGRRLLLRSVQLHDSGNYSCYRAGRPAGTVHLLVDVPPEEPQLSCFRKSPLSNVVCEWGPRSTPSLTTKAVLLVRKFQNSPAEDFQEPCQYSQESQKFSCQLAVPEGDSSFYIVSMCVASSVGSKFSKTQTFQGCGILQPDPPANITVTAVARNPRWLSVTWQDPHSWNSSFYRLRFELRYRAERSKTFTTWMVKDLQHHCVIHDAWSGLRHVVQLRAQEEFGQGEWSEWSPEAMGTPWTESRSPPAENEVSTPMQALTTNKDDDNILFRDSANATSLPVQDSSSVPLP
TREM-1, sequence (Q9NP99 21-205): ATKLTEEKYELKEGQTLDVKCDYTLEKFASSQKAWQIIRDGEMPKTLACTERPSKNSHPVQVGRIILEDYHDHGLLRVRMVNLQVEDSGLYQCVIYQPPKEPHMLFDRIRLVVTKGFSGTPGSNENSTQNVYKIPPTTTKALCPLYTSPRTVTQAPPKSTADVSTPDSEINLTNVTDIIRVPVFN
TLR4, sequence (O00206 24-631): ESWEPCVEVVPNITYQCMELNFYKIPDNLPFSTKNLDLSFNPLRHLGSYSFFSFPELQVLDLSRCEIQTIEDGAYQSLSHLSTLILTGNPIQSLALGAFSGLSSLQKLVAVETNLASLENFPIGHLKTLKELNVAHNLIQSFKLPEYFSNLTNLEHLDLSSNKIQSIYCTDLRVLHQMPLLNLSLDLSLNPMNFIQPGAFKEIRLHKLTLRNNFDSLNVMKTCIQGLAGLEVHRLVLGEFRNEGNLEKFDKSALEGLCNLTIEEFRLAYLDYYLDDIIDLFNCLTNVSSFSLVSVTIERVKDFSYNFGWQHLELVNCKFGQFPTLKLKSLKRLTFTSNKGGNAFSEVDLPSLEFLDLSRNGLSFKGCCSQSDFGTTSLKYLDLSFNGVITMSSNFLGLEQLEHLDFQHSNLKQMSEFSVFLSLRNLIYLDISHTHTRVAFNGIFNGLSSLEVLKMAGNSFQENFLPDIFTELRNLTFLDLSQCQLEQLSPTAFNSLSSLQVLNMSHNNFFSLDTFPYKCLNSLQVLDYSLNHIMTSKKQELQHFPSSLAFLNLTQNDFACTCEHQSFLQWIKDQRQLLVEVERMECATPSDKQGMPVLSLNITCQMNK

As a reminder, the Kd is a measure of binding affinity in units of concentration. Consider eCIRP (from UniProt Q14011), for which the Kd in the data set with TREM-1 was 0.117 µM; with TLR4 it was 0.617 µM; with IL-6R it was 0.098 µM.
